Source: patent publication US20100015637A1 (AbbVie / Abbott, published 2010)

Key:
[1] = target: human PlGF-1 comprising amino acids 1-137 produced in human embryonic kidney cells (human) (UniProt P49763); test: Format 2 …, capture MAb264, detection Pb264; sFlt-1 1533 pmol/L (ratio 50)
[2] = target: human PlGF-1 comprising amino acids 1-137 produced in human embryonic kidney cells (human) (UniProt P49763); test: Format 2 …, capture MAb264, detection Pb264; sFlt-1 4600 pmol/L (ratio 150)
[3] = target: human PlGF-1 comprising amino acids 1-137 produced in human embryonic kidney cells (human) (UniProt P49763); test: Format 1 …, capture 2-826-335, detection 1-255-713; sFlt-1 920 pmol/L (ratio 30)
[4] = target: human PlGF-1 comprising amino acids 1-137 produced in human embryonic kidney cells (human) (UniProt P49763); test: Format 1 …, capture 2-826-335, detection 1-255-713; sFlt-1 3067 pmol/L (ratio 100)
[5] = target: human PlGF-1 comprising amino acids 1-137 produced in human embryonic kidney cells (human) (UniProt P49763); test: Format 1 …, capture 2-826-335, detection 1-255-713; sFlt-1 4600 pmol/L (ratio 150)
[6] = target: human PlGF-1 comprising amino acids 1-137 produced in human embryonic kidney cells (human) (UniProt P49763); test: Format 3 Quantikine ELISA, capture MAb264, detection Pb264; sFlt-1 613 pmol/L (ratio 20)
[7] = target: human PlGF-1 comprising amino acids 1-137 produced in human embryonic kidney cells (human) (UniProt P49763); test: Format 3 Quantikine ELISA, capture MAb264, detection Pb264; sFlt-1 4600 pmol/L (ratio 150)
[8] = target: recombinant human PlGF-1 (comprising amino acids 1-131) expressed in E. coli (R&D Systems) (human) (UniProt P49763); test: … sandwich, capture MAb255, detection pAb264; antigen 750 pg/mL
[9] = target: T1, CHO human PlGF-1 comprising amino acids 1-137 (human PlGF-1-His (1-131), CHO 6305) (human, UniProt P49763 19-221, N-glycans at N21 (completely glycosylated) and N89 (partially glycosylated)); test: … sandwich, capture MAb255, detection pAb264; antigen 60 pg/mL
T1 construct: Mature human PlGF-1 with 6xHis tag (137 amino acids); also called CHO (1-137)
T1 sequence: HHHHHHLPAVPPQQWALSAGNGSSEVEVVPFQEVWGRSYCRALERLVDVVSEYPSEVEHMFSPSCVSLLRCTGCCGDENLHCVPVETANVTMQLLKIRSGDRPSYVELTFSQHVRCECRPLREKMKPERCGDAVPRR

[10] = target: T2, CHO human PlGF-1 fragment (comprising amino acids 17-131; ATCC PTA-8540) (human, UniProt P49763 35-221); test: … sandwich, capture MAb255, detection MAb826; antigen 60 pg/mL
T2 sequence: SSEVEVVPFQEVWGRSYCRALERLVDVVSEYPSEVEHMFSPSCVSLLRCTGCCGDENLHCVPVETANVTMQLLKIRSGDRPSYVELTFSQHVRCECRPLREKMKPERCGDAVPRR
Summary of the method: (§1)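 Values are chemiluminescent relative light units (RLU) from a sandwich immunoassay of human PlGF-1 antigen preparations, some of them recombinant forms made in CHO cells. Antigen levels ran from 0 to 1500 pg/mL. Capture was by a monoclonal anti-human PlGF-1 antibody bound to magnetic microparticles, and detection was by an acridinium ester-labeled monoclonal anti-human PlGF-1 antibody.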

[11] = target: T1, CHO human PlGF-1 comprising amino acids …; test: as above
Summary of the method: as §1

[12] = target: T3, human PlGF-1 comprising amino acids 1-137 produced in human embryonic kidney cells (human, UniProt P49763 19-221); test: as above
T3 construct: Mature human PlGF-1 with 6xHis tag; also called HEK (1-137); full length HEK human PlGF-1 (1-137)
T3 sequence: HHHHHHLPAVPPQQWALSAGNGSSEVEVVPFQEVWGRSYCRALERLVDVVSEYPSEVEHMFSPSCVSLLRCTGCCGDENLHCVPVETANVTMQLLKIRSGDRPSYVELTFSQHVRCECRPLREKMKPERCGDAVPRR
Summary of the method: as §1

[13] = target: T4, human PlGF-1 fragment (comprising amino acids 17-131) produced in human embryonic kidney cells (human, UniProt P49763 35-221); test: as above
T4 sequence: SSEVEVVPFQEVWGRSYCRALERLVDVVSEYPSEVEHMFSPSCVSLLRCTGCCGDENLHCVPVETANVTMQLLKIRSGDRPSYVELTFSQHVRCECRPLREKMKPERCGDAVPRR
Summary of the method: as §1

[14] = target: T2, CHO human PlGF-1 fragment (comprising …); test: … sandwich, capture MAb255, detection pAb264; antigen 250 pg/mL
[15] = target: T1, CHO human PlGF-1 comprising amino acids …; test: as above
[16] = target: T3, human PlGF-1 comprising amino acids …; test: as above
[17] = target: T4, human PlGF-1 fragment (comprising amino …); test: as above
[18] = target: T3, human PlGF-1 comprising amino acids …; test: … sandwich, capture MAb255, detection pAb264; antigen 0 pg/mL (blank)

## native sFlt-1, isolated from human placental tissue (from UniProt P17948 27-687) (receptor)
[1]
  % Inhibition: 93.6%
  PlGF-1 Measured: 50.4 pg/mL
[2]
  % Inhibition: 96.5%
  PlGF-1 Measured: 27.5 pg/mL
[3]
  % Inhibition: 90.7%
  PlGF-1 Measured: 95.1 pg/mL
[4]
  % Inhibition: 94.1%
  PlGF-1 Measured: 60.3 pg/mL
[5]
  % Inhibition: 95%
  PlGF-1 Measured: 51.3 pg/mL
[6]
  % Inhibition: 40.4%
  PlGF-1 Measured: 515 pg/mL
[7]
  % Inhibition: 81.6%
  PlGF-1 Measured: 159 pg/mL

B1: monoclonal antibody 1-255-713 (produced by murine hybridoma cell line 1-255-713, ATCC PTA-8536) (antibody, mouse IgG2a, V domains shown)
VH: QVHLQQSGAELMKPGASVKISCKATGYTFSSYWIEWVKQRPGHGLEWIGEILPGSVSNNFNEKFKDKATLTADPSSNTAYIQVSSLTSEDSAVYYCARSTGFYYGGNYFDHWGQGTTLAVSS
VL: DVVMTQTPLSLPVSPGDQASISCRSSQSLVHSNGHTYLHWYLQKPGQSPKLLIYKVSNRFSGVPDRVSGSGSGTDFTLKISRVEAEDLGVYFCSQSTHVPPTFGGGTKLEIKR
notes: also called MAb255
[8]
  RLU: 1.32e+06 RLU
[9]
  RLU: 71600 RLU
[10]
  RLU: 42100 RLU
[11]
  RLU: 42200 RLU
[12]
  RLU: 101000 RLU
[13]
  RLU: 57900 RLU
[14]
  RLU: 283000 RLU
[15]
  RLU: 226000 RLU
[16]
  RLU: 559000 RLU
[17]
  RLU: 363000 RLU
[18]
  RLU: 14200 RLU
